The values that follow come from the Human Domainome abundance scans (Beltran et al. 2025).

± gives the uncertainty stated by the source.

B1: Metastasis-associated protein MTA3, residues 265 to 317; numbered along this chain, Q9BTC8 (parent)
chain: RDEMEEWSASEASLFEEALEKYGKDFNDIRQDFLPWKSLTSIIEYYYMWKTTD

The series covers variants of B1. Put plainly: abundance fitness (aPCA) (normalised: wild type 0, dead -1); higher = more abundant; growth selection in yeast, the domain comes from the species named. The conditions noted are these: Homo sapiens.
With RDEMEEWSASEASLFEEALEKYGKDFNAIRQDFLPWKSLTSIIEYYYMWKTTD, the abundance fitness is 0.861 ± 0.079.

In the case of RDEMEEWSASEASLFEEALEKYGFDFNDIRQDFLPWKSLTSIIEYYYMWKTTD, the abundance fitness was -0.992 ± 0.19.

For the variant RDEMEEWSASHASLFEEALEKYGKDFNDIRQDFLPWKSLTSIIEYYYMWKTTD, the abundance fitness was -0.175 ± 0.12.

Consider RDEMEEWSASVASLFEEALEKYGKDFNDIRQDFLPWKSLTSIIEYYYMWKTTD, for which the abundance fitness is -0.7 ± 0.12.

As for RDEMEEWSASGASLFEEALEKYGKDFNDIRQDFLPWKSLTSIIEYYYMWKTTD, the abundance fitness was -0.68 ± 0.15.

On to RDEMEESSASEASLFEEALEKYGKDFNDIRQDFLPWKSLTSIIEYYYMWKTTD, for which the abundance fitness was -0.777 ± 0.11.

Consider RDEMEEQSASEASLFEEALEKYGKDFNDIRQDFLPWKSLTSIIEYYYMWKTTD, for which the abundance fitness is -1.03 ± 0.25.

Turning to RDEMEEWSASEASLFEEALTKYGKDFNDIRQDFLPWKSLTSIIEYYYMWKTTD, the abundance fitness is -0.262 ± 0.077.

As to RDEMEEWSASEASLFEEALNKYGKDFNDIRQDFLPWKSLTSIIEYYYMWKTTD, the abundance fitness is -0.303 ± 0.15.

Regarding RDEMEEWSASEASLFEEALPKYGKDFNDIRQDFLPWKSLTSIIEYYYMWKTTD, the abundance fitness is -0.864 ± 0.14.

For the variant RDEMEEWSASEASLFEEALEKYGKDFNDIRQDFLPWKSLTSHIEYYYMWKTTD, the abundance fitness is -0.744 ± 0.14.

For the variant RDEMEEWSASEASLFEEALEKYGKDFNDIRQDFLPWKSLTSFIEYYYMWKTTD, the abundance fitness was -0.634 ± 0.2.

As to RDEMEEWSASEASLFEEALEKYGKDFNDIRQDFLPWKSLTSYIEYYYMWKTTD, the abundance fitness is -0.572 ± 0.16.

As for RDEMEEWSASEASLFEESLEKYGKDFNDIRQDFLPWKSLTSIIEYYYMWKTTD, the abundance fitness is -0.988 ± 0.14.

Turning to RDEMEEWSASEASLFEEWLEKYGKDFNDIRQDFLPWKSLTSIIEYYYMWKTTD, the abundance fitness is -0.817 ± 0.11.

In the case of RDEMEEWSASEASLFEEALEKYGKDFNDIRQDFLPWKSLPSIIEYYYMWKTTD, the abundance fitness is -0.332 ± 0.076.

For the variant RDEMEEWSASEASLFEEALEKYGKDFNDIRQDFLPWKSLLSIIEYYYMWKTTD, the abundance fitness was -0.827 ± 0.094.

For RDEMEAWSASEASLFEEALEKYGKDFNDIRQDFLPWKSLTSIIEYYYMWKTTD, the abundance fitness was 0.228 ± 0.19.

On to RDEMEPWSASEASLFEEALEKYGKDFNDIRQDFLPWKSLTSIIEYYYMWKTTD, for which the abundance fitness is -0.384 ± 0.27.

As to RDEMEEWDASEASLFEEALEKYGKDFNDIRQDFLPWKSLTSIIEYYYMWKTTD, the abundance fitness was -0.587 ± 0.12.

As to RDEMEEWRASEASLFEEALEKYGKDFNDIRQDFLPWKSLTSIIEYYYMWKTTD, the abundance fitness was -0.93 ± 0.12.

Take RDEMEEWSASEASLFEEALECYGKDFNDIRQDFLPWKSLTSIIEYYYMWKTTD: the abundance fitness was -0.683 ± 0.34.

As to RDEMEEWSASEASLFEEALEMYGKDFNDIRQDFLPWKSLTSIIEYYYMWKTTD, the abundance fitness is -0.763 ± 0.18.

With RDEMEEWSASEASLFEEALEWYGKDFNDIRQDFLPWKSLTSIIEYYYMWKTTD, the abundance fitness was -0.801 ± 0.11.

Turning to RDEMEEWSASEASLFEEALEHYGKDFNDIRQDFLPWKSLTSIIEYYYMWKTTD, the abundance fitness is -0.674 ± 0.17.

Take RDEMEEWSASEASLFEEALELYGKDFNDIRQDFLPWKSLTSIIEYYYMWKTTD: the abundance fitness is -0.483 ± 0.084.

Consider RDEMEEWSASEASLFKEALEKYGKDFNDIRQDFLPWKSLTSIIEYYYMWKTTD, for which the abundance fitness is -0.359 ± 0.2.

Regarding RDEMEEWSASEASLFSEALEKYGKDFNDIRQDFLPWKSLTSIIEYYYMWKTTD, the abundance fitness was -0.324 ± 0.095.

Regarding RDEMEEWSASEASLFDEALEKYGKDFNDIRQDFLPWKSLTSIIEYYYMWKTTD, the abundance fitness was -0.572 ± 0.27.

In the case of RDEMEEWSASEASLFIEALEKYGKDFNDIRQDFLPWKSLTSIIEYYYMWKTTD, the abundance fitness is -0.693 ± 0.17.

Regarding RDEMEEWSASEASAFEEALEKYGKDFNDIRQDFLPWKSLTSIIEYYYMWKTTD, the abundance fitness was -0.396 ± 0.087.

For RPEMEEWSASEASLFEEALEKYGKDFNDIRQDFLPWKSLTSIIEYYYMWKTTD, the abundance fitness is -0.617 ± 0.49.

In the case of RSEMEEWSASEASLFEEALEKYGKDFNDIRQDFLPWKSLTSIIEYYYMWKTTD, the abundance fitness was -0.249 ± 0.23.

On to RDEMEEWSASEASLFEEALEKYGKDFNDIRQDFLPWKSLTSIIEYYYMWKTDD, for which the abundance fitness was -0.251 ± 0.21.

As to RDEMEEWSASEASLFEEALEKYGKDFNDIRQDFLPWKSLTSIIEYYYMWKTTP, the abundance fitness is -0.044 ± 0.097.

Regarding RDEMEEWSASEASLFEEALEKYGKDFNDIRQDFLPWKSLTSIIEYYYMWKTTC, the abundance fitness turned out to be 0.179 ± 0.29.

On to RDEMTEWSASEASLFEEALEKYGKDFNDIRQDFLPWKSLTSIIEYYYMWKTTD, for which the abundance fitness was -0.697 ± 0.34.

RDEMEEWSASEASLFEEALEKYNKDFNDIRQDFLPWKSLTSIIEYYYMWKTTD: the abundance fitness was -0.638 ± 0.19.

With RDEMEEWSASEASLFEEALEKYDKDFNDIRQDFLPWKSLTSIIEYYYMWKTTD, the abundance fitness is -0.558 ± 0.19.

In the case of RDEMEEWSASEASLFEEALEKYGKDFNDIRQDFLPWKSLTSISEYYYMWKTTD, the abundance fitness was -0.297 ± 0.093.

Consider RDEMEEWSASEASLFEEALEKYGKDFNDIRQDFLPWKSLTSIIEYYYPWKTTD, for which the abundance fitness was -0.817 ± 0.13.

As for RDEMEEWSASEASLFEEALEKYGKDFNDIRQDFLPWKSLTSIIEYYYAWKTTD, the abundance fitness was -0.006 ± 0.091.

As for RDEMEEWSASEASLFEEALEKYGKDFNDIRQDFLPWKSLTSIIEMYYMWKTTD, the abundance fitness is -0.872 ± 0.18.

For RDEMEEWSASEASLFEEALEKYGKDFNDIRQDFLPWKSLTSIIERYYMWKTTD, the abundance fitness is -0.174 ± 0.19.

Take RDEMEEWSASEASLFEEALEKYGKDFNDIRQDFLPWKSLTSIIEQYYMWKTTD: the abundance fitness is -0.566 ± 0.16.

As for RDEMEEWSASEASLFEEALEKRGKDFNDIRQDFLPWKSLTSIIEYYYMWKTTD, the abundance fitness is -0.2 ± 0.079.

For RDEMEEWSASEASLFEEALEKCGKDFNDIRQDFLPWKSLTSIIEYYYMWKTTD, the abundance fitness turned out to be 0.26 ± 0.091.

In the case of RDEMEEWSASEASLFEEALEKDGKDFNDIRQDFLPWKSLTSIIEYYYMWKTTD, the abundance fitness is -1.07 ± 0.36.

As to RDEMEEWSASEASLFEEALEKLGKDFNDIRQDFLPWKSLTSIIEYYYMWKTTD, the abundance fitness was -0.536 ± 0.12.

For the variant RDEMEEWSAEEASLFEEALEKYGKDFNDIRQDFLPWKSLTSIIEYYYMWKTTD, the abundance fitness was -0.012 ± 0.1.
